The source of these data is patent US12702701B2, “Compositions and methods for treating granulomatosis with polyangiitis” (Canem Holdings, LLC, priority 2015, dated 2026).

Assay [1] concerns HUVEC (human umbilical vein endothelial cells). Briefly: HUVEC cytotoxicity assay: calcein release after attack by TNF-primed, α-PR3 mAb-activated neutrophils. Particulars: for % Release / Mean (fluorescence): 0.25 mg/mL, α-PR3 mAbs +, 4 hours at 37° C.; for response in fluorescence release: all doses tested. Format: cell-based. An excerpt: A cell culture provides a model of the blood vessels by using HUVEC (human umbilical vein endothelial cells) cultured to 80-90% confluence as a representation of the blood vessel wall. The following is a model of GPA in cell culture using HUVEC and human blood neutrophils that are primed and activated by c-ANCA in the same manner as the disease. HUVEC are sensitized to inflammatory damage by pre-exposure to BCNU and ionomycin. In the disease state of Granulomatosis with Polyangiitis (GPAANegener's), activated neutrophils attack the blood vessel walls. This study evaluated two compounds, A1PI (α-1-antitrypsin; Sigma Aldrich Cat. No. A9024, lot SLBL9794V, 90% purity) and elafin (AnaSpec Cat. No. AS-61641, lot 1360190, 95% purity), and their ability to mitigate the induced damage to HUVEC as a model of the vascular endothelium compared to the negative control al-antichymotrypsin (Athens Research & Technology, Cat. No. 16-16-012400, lot AX2014-02, >95% purity). al-Antichymotrypsin was chosen as a negative control due to its structural similarity to A1PI and lack of activity against the PR3 receptor. α-1-Antichymotrypsin inhibits neutrophil cathepsin G and mast cell chymase.
Confluent HUVEC was labeled with calcein-AM as a fluorescent marker. Calcein-AM is a cell-permeant dye that can be used to determine cell viability in HUVEC (and most eukaryotic cells). In live cells the non-fluorescent calcein AM is converted to a green-fluorescent calcein upon uptake after acetoxymethyl ester hydrolysis by intracellular esterases. Calcein-AM dye requires very small quantities of cells while maintaining the same sensitivity as the traditional ^51Cr assay. Once taken up by the cell, free calcein is generally membrane impermeable and only permeates through gap junctions. Although there is some leakage over the incubation period, this is accounted for through the use of a control of HUVEC alone, labelled with Calcein-AM and used to determine the baseline fluorescence level accounting for normal cellular processes.
Peripheral blood neutrophils were primed to enhance expression of the PR-3 receptor (proteinase 3) with 50 U/mL TNF. A high proportion of membrane PR3 positive neutrophils is a risk factor for the development of vasculitis, and elevated membrane PR3 levels are associated with a higher relapse rate in patients with Wegener granulomatosis. Activated neutrophils were then added (5×10^5 neutrophils/well) to plated calcein labeled HUVEC to produce an inflammatory response. Four dose concentrations of A1PI (0.25, 0.5, 1.0 and 2.0 mg/mL) and one dose of elafin (0.25 mg/mL) were evaluated for prevention of the activation of neutrophils and lysis of the cells. One dose concentration of the negative control al antichymotrypsin (0.25 mg/mL) was evaluated.
Three a-PR-3 MoAbs [monoclonal antibodies (15 μg/mL of α-PR3 WGM2 and 5 μg/ml each of a-PR3 4A5 and α-PR 6A6, for a total of 25 μg/mL)] were added to activate the neutrophils to attack the HUVEC, causing lysis of the HUVEC. α-PR3 4A5 and α-PR3 6A6 clones were obtained from Eurodiagnostica and the α-PR3 WGM2 from Abcam. These 3 clones were selected to provide a model of the polyclonal response that would be seen in vivo and represent three binding sites on the PR-3 receptor (Van Der Geld, Characterization of monoclonal antibodies to PR3 as candidate tools for epitope mapping or human anti-PR3 autoantibodies, 1999). After addition of the activated neutrophils, test compounds and α-PR3 mAbs, cells were incubated for 4 hours at 37° C. Following incubation the supernatant was evaluated for fluorescence. When neutrophils attack the HUVEC and cell lysis occurs, the fluorescent calcein label is released from damaged membranes and measured in the supernatants.
A1PI provided a response that was dose dependent and directional in nature. The mean fluorescence was determined from […] aliquots of supernatant from each well, with 6 wells for each condition (18 replicates total). […]

Assay [2] has as its target T1, proteinase-3 (Homo sapiens, UniProt P24158).
T1 sequence (P24158 28-248): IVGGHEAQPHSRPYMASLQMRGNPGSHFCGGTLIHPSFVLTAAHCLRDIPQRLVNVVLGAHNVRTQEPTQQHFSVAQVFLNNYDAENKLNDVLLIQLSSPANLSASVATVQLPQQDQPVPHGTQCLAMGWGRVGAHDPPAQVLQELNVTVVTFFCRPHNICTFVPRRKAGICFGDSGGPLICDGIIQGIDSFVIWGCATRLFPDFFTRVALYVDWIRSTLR
Particulars: Nobar et al, FEBS 272 (2005); cited from earlier work.

The target of assay [3] is T1, proteinase-3. Particulars: cited from earlier work.

With “Elafin: mature product of Trappin-2, C-terminal 57 amino acids (61-117 of SEQ ID NO: 9); AnaSpec Cat. No. AS-61641 (AQEPVKGPVSTKPGSCPIILIRCAMLNPPNRCLKDTDCPGIKKCCEGSCGMACFVPQ; listed as Homo sapiens)”, in assay [1], the “% Release” value is 6.2%, the “Mean (fluorescence)” value is given as 5455.7 and the “response in fluorescence release” value is on record as “showed a functional response”. The Ki values result in assay [2] is listed as “sub-nanomolar range”. The “equilibrium dissociation constant (Ki) for proteinase-3/elafin association” value in assay [3] is 0.02 µM.

Take “Trappin-2: precursor of elafin, 117 amino acids, SEQ ID NO: 9”: in assay [2], the Ki values entry is on record as “sub-nanomolar range”. Besides, the “K of Proteinase-3/Trappin-2 associations” value in assay [3] is recorded as 12 nm.

B1: Negative K: negative control α1-antichymotrypsin (Athens Research & Technology), structurally similar to A1PI, lacks activity against the PR3 receptor (protein)
chain: HPNSPLDEENLTQENQDRGTHVDLGLASANVDFAFSLYKQLVLKAPDKNVIFSPLSISTALAFLSLGAHNTTLTEILKGLKFNLTETSEAEIHQSFQHLLRTLNQSSDELQLSMGNAMFVKEQLSLLDRFTEDAKRLYGSEAFATDFQDSAAAKKLINDYVKNGTRGKITDLIKDLDSQTMMVLVNYIFFKAKWEMPFDPQDTHQSRFYLSKKKWVMVPMMSLHHLTIPYFRDEELSCTVVELKYTGNASALFILPDQDKMEEVEAMLLPETLKRWRDSLEFREIGELYLPKFSISRDYNLNDILLQLGIEEAFTSKADLSGITGARNLAVSQVVHKAVLDVFEEGTEASAATAVKITLLSALVETRTIVRFNRPFLMIIVPTDTQNIFFMSKVTNPKQA
B1: in assay [1], the “% Release” value is given as 21.9%, the “Mean (fluorescence)” value is reported as 4417.7 and the “response in fluorescence release” value is reported as “failing to provide a meaningful change”.
